Consider one molecule from PMC2644404 (Journal of molecular biology, 2008).

In the experiment the target is T1, Human salivary α-amylase (human, UniProt P0DUB6 16-511).
T1 sequence (looked up): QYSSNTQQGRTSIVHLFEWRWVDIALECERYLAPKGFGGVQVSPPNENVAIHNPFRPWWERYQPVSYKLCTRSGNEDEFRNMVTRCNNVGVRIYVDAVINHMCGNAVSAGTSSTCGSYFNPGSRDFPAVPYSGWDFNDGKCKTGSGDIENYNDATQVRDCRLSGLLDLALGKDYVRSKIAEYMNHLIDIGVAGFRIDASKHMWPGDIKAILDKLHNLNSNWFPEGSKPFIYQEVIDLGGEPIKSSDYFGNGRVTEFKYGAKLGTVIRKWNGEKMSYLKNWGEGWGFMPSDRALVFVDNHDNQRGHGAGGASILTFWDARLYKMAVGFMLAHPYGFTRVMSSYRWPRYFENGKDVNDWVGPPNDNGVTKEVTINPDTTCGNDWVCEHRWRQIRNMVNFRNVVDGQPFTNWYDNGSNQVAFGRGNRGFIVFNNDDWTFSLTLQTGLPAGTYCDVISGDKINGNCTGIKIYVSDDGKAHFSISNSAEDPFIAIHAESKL
The experiment can be described thus: SPR. (In general: In SPR one partner is held on a chip, and binding of the other changes the refractive index at the surface.)

B1: Amylase binding protein A (natural protein, S. gordonii, UniProt A8AZZ3 1-195, looked up)
chain: MKKVLLSSVVALTLFAAAAPVFSADEATDAARNNDGAYYLQTQFTNADKVNEYLAQHDGEIRAEAAADPAVVAAKAALDAVEGGSHNYGEVKAAYEAAFNNAFNAVRNKYVQQFQATYNNATEQEGKTYIQGETPEQANARYLKRVGAANNQNPAAEDKGATTPASKEEAKKSEAAAKNAGKAAGKALPKTSAVK
Broadly, the Kd is the constant that tells how readily two partners part at equilibrium. A lower Kd goes with a tighter complex. In general, koff refers to the rate constant with which the complex falls apart. One may read the kon as a measure of how fast the partners come together. For the molecule B1, the Ka was 8.79e+07 M⁻¹, the Kd worked out at 11.3 nM, the koff came out at 0.000307 s⁻¹ and the kon is 27000 M⁻¹ s⁻¹.
